Tested on: Escherichia coli TOP10
Experiment: shrunken log2 fold change of peptide-encoding DNA abundance (4.5 h post-induction vs induction); higher = less antimicrobial activity (less host growth inhibition)
Settings: time post-induction: 4.5 h; library: site-saturation at positions 5, 18, 19, 20
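Note: peptides expressed intracellularly from a pBAD plasmid library in pooled LB shake-flask culture, induced with 0.3% L-arabinose, DNA abundance read by NGS, three biological replicates, DESeq2 with apeglm shrinkage.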

| Sequence | shrunken log2 fold change |
| --- | --- |
| RRIRCRPPRLPRPRPRPRECPRP | -0.146 |
| RRIRGRPPRLPRPRPRPGDTPRP | 0.616 |
| RRIRHRPPRLPRPRPRPCAEPRP | -0.228 |
| RRIRNRPPRLPRPRPRPFKQPRP | -0.0135 |
| RRIRHRPPRLPRPRPRPMKQPRP | -0.0525 |
| RRIRFRPPRLPRPRPRPRQQPRP | 0.0599 |
| RRIRLRPPRLPRPRPRPVLSPRP | -0.0937 |
| RRIRPRPPRLPRPRPRPCYLPRP | -0.958 |
| RRIRNRPPRLPRPRPRPKCVPRP | -0.0346 |
| RRIRTRPPRLPRPRPRPDADPRP | 0.0357 |
| RRIRMRPPRLPRPRPRPPMGPRP | 0.921 |
| RRIRPRPPRLPRPRPRPWYYPRP | -0.102 |
| RRIRKRPPRLPRPRPRPMQHPRP | 0.589 |
| RRIRIRPPRLPRPRPRPVHPPRP | -0.0793 |
| RRIRTRPPRLPRPRPRPQWQPRP | 0.0822 |
| RRIRIRPPRLPRPRPRPAMMPRP | -0.105 |
| RRIRVRPPRLPRPRPRPLYAPRP | -0.154 |
| RRIRERPPRLPRPRPRPQIPPRP | -0.237 |
| RRIRHRPPRLPRPRPRPHDFPRP | -0.0633 |
| RRIRERPPRLPRPRPRPRSWPRP | 0.0987 |
| RRIRSRPPRLPRPRPRPMTKPRP | 0.0651 |

| Sequence | shrunken log2 fold change |
| --- | --- |
| RRIRCRPPRLPRPRPRPGTNPRP | -0.15 |
| RRIRLRPPRLPRPRPRPMDFPRP | -0.0499 |
| RRIRNRPPRLPRPRPRPSITPRP | -0.656 |
| RRIRHRPPRLPRPRPRPWAQPRP | 0.0333 |
| RRIRVRPPRLPRPRPRPGCNPRP | -0.216 |
| RRIRWRPPRLPRPRPRPCNWPRP | 0.136 |
| RRIRDRPPRLPRPRPRPVHGPRP | 1.43 |
| RRIRCRPPRLPRPRPRPAAHPRP | 0.37 |
| RRIRSRPPRLPRPRPRPKDTPRP | -0.145 |
| RRIRIRPPRLPRPRPRPSEYPRP | -0.0435 |
| RRIRCRPPRLPRPRPRPNGIPRP | -0.117 |
| RRIRRRPPRLPRPRPRPGYFPRP | -0.209 |
| RRIRTRPPRLPRPRPRPKTLPRP | 0.0791 |
| RRIRGRPPRLPRPRPRPPAAPRP | 1.63 |
| RRIRSRPPRLPRPRPRPGHRPRP | -0.326 |
| RRIRARPPRLPRPRPRPTSVPRP | 0.52 |
| RRIRQRPPRLPRPRPRPIPYPRP | -0.0122 |
| RRIRVRPPRLPRPRPRPGCRPRP | 0.5 |
| RRIRYRPPRLPRPRPRPYIPPRP | -0.457 |
| RRIRMRPPRLPRPRPRPTCTPRP | 0.963 |
| RRIRYRPPRLPRPRPRPSTWPRP | -0.647 |

| Sequence | shrunken log2 fold change |
| --- | --- |
| RRIRPRPPRLPRPRPRPAEAPRP | 0.103 |
| RRIRHRPPRLPRPRPRPIPPPRP | -0.0356 |
| RRIRERPPRLPRPRPRPKQHPRP | 0.241 |
| RRIRIRPPRLPRPRPRPSDVPRP | -0.838 |
| RRIRSRPPRLPRPRPRPGLSPRP | 0.245 |
| RRIRMRPPRLPRPRPRPIQCPRP | -0.239 |
| RRIRHRPPRLPRPRPRPVLLPRP | -0.0673 |
| RRIRWRPPRLPRPRPRPSSDPRP | -0.0856 |
| RRIRTRPPRLPRPRPRPDPFPRP | -0.0199 |
| RRIRTRPPRLPRPRPRPMKTPRP | 0.0208 |
| RRIRDRPPRLPRPRPRPWHHPRP | -0.179 |
| RRIRGRPPRLPRPRPRPVQGPRP | 0.301 |
| RRIRPRPPRLPRPRPRPTHCPRP | 0.1 |
| RRIRIRPPRLPRPRPRPNNVPRP | -0.7 |
| RRIRRRPPRLPRPRPRPVIKPRP | -0.121 |
| RRIRWRPPRLPRPRPRPHEFPRP | -0.0844 |
| RRIRQRPPRLPRPRPRPYCRPRP | -0.00101 |
| RRIRNRPPRLPRPRPRPEWLPRP | 0.226 |
| RRIRHRPPRLPRPRPRPLLEPRP | 0.0851 |
| RRIRFRPPRLPRPRPRPENAPRP | 0.402 |
| RRIRTRPPRLPRPRPRPRDTPRP | -0.0276 |

— the supplement of paper PMC9112550, “Optimization of the antimicrobial peptide Bac7 by deep mutational scanning” (BMC Biology, 2022)
